From paper PMC2903434
pKd: −log10 of the molar value.

Biological target: PAK1 kinase domain (K298R mutant), residues 250-545 from PAK-fl (UniProt Q13153)

truncated autoinhibitory domain (trunc-AID, residues 83-137) from PAK1 (from UniProt Q13153 83-137) (domain or fragment)
pKd: 5.40
